Test results from patent US20240132578A1.

Legend:
Test in all cases: cell-based or functional assay
[1] = molecular target: HIV-1 Env of isolate IAVI-C22 (Clade C) (HIV-1)
[2] = molecular target: HIV-1 Env of pseudovirus MGRM-F1-013 (clade F) (HIV-1)
[3] = molecular target: HIV-1 Env of isolate 92BR020 (Clade B) (HIV-1)
[4] = molecular target: HIV-1 Env of isolate NL43 (positive control) (HIV-1)
[5] = molecular target: HIV-1 94UG103 envelope protein (Env) on pseudotyped virus (HIV-1 strain 94UG103)
[6] = molecular target: HIV-1 92TH021 envelope protein (Env) on pseudotyped virus (HIV-1 strain 92TH021)
[7] = molecular target: HIV-1 92BR020 envelope protein (Env) on pseudotyped virus (HIV-1 strain 92BR020)
[8] = molecular target: HIV-1 Env of isolate APV-6 (Clade B) (HIV-1)
[9] = molecular target: HIV-1 SF162 envelope protein (Env) on pseudotyped virus (HIV-1 isolate SF162) (UniProt P19550)
[10] = molecular target: HIV-1 Env of isolate MGRM-A-013 (pseudovirus) (HIV-1)
[11] = molecular target: HIV-1 envelope glycoprotein (Env) of isolate 92UG031 (HIV-1)
[12] = molecular target: HIV-1 Env of isolate MGRM-F1-006 (subtype F) (HIV-1)
[13] = molecular target: HIV-1 Env of isolate MGRM-Chronic-B-008 (subtype B), on pseudovirus (HIV-1)
[14] = molecular target: HIV-1 envelope glycoprotein (Env) of isolate 92WR021 (HIV-1)
[15] = molecular target: HIV-1 Env of isolate MG RM-C-022 (HIV-1)
[16] = molecular target: HIV-1 Env of isolate MG RM-D-011 (subtype D) (HIV-1)
[17] = molecular target: HIV-1 Env of isolate 92UG114 (subtype D) (HIV-1)
[18] = molecular target: HIV-1 envelope glycoprotein (Env) of isolate 92WR020 (HIV-1)
[19] = molecular target: HIV-1 envelope glycoprotein (Env) of isolate JR-FL, on pseudovirus (HIV-1)
[20] = molecular target: HIV-1 envelope glycoprotein (Env) of isolate 92BR020, on pseudovirus (HIV-1)
[21] = molecular target: HIV-1 MGRM-AG-005 Env (HIV-1)
[22] = molecular target: HIV-1 JR-CSF Env T297A (HIV-1 (isolate JR-CSF, clade B)) (UniProt P20871)
[23] = molecular target: HIV-1 Env of isolate MGRM-F1-014 (pseudovirus) (HIV-1)
HIV-1 APV13 Env (HIV-1) = molecular target: HIV-1 APV13 Env (HIV-1)
[24] = molecular target: HIV-1 MGRM-D-001 Env (HIV-1)
[25] = molecular target: HIV-1 JR-CSF Env T341A (HIV-1 isolate JR-CSF) (UniProt P20871)
[26] = molecular target: HIV-1 JR-CSF Env H330A (HIV-1 isolate JR-CSF) (UniProt P20871)
[27] = molecular target: HIV-1 JR-CSF Env D325A (HIV-1 isolate JR-CSF) (UniProt P20871)
[28] = molecular target: HIV-1 JR-CSF Env N262A (HIV-1 (isolate JR-CSF)) (UniProt P20871)
[29] = molecular target: HIV-1 JR-CSF Env K305A (HIV-1 (isolate JR-CSF, clade B)) (UniProt P20871)

Question: With 2F5 (antibody) as the substance, how does the IC90 (neutralization of pseudovirus) [1] read?
Answer: > 50 µg/mL

Question: And the IC50 [2]?
Answer: 4.57 µg/mL

Question: And the IC90 (neutralization of pseudovirus) [3]?
Answer: > 50 µg/mL

Question: What about the IC90 (neutralization of pseudovirus) [4] of the same substance?
Answer: 19.3 µg/mL

Question: Which IC90 (neutralization of pseudovirus) [1] does the source give for 2G12 (antibody) here?
Answer: > 50 µg/mL

Question: What about the IC50 [2] of the same substance?
Answer: > 50 µg/mL

Question: What about the IC90 (neutralization of pseudovirus) [3] of the same substance?
Answer: 24.1 µg/mL

Question: What about the IC90 (neutralization of pseudovirus) [4] of the same substance?
Answer: 15.8 µg/mL

Question: Which IC90 (neutralization of pseudovirus) [1] does the source give for 4E10 (antibody) here?
Answer: 16.4 µg/mL

Question: And the IC90 (neutralization of pseudovirus) [3]?
Answer: > 50 µg/mL

Question: And the IC90 (neutralization of pseudovirus) [4]?
Answer: 29.6 µg/mL

Question: Which IC50, Neutralizing Antibody Assay, Virus/Ab Incubation 1 hour [5] does the source give for 1443_C16 (PG16) (TCN-116) (antibody) here?
Answer: 0.0211 µg/mL

Question: What about the IC50, Neutralizing Antibody Assay, Virus/Ab Incubation 18 hour [5] of the same substance?
Answer: 0.0085 µg/mL

Question: What about the IC90 (neutralization of pseudovirus) [1] of the same substance?
Answer: > 50 µg/mL

Question: And the IC50, Neutralizing Antibody Assay, Virus/Ab Incubation 1 hour [6]?
Answer: 0.136 µg/mL

Question: What about the IC50, Neutralizing Antibody Assay, Virus/Ab Incubation 18 hour [6] of the same substance?
Answer: 0.0435 µg/mL

Question: What about the IC50, Neutralizing Antibody Assay, Virus/Ab Incubation 1 hour [7] of the same substance?
Answer: > 50 µg/mL

Question: What about the IC50, Neutralizing Antibody Assay, Virus/Ab Incubation 18 hour [7] of the same substance?
Answer: > 50 µg/mL

Question: And the IC90 (neutralization of pseudovirus) [3]?
Answer: > 50 µg/mL

Question: And the IC90 (neutralization of pseudovirus) [4]?
Answer: > 50 µg/mL

Question: What about the IC90 (neutralization of pseudovirus) [8] of the same substance?
Answer: 44.3 µg/mL

Question: What about the IC50, Neutralizing Antibody Assay, Virus/Ab Incubation 1 hour [9] of the same substance?
Answer: > 50 µg/mL

Question: And the IC50, Neutralizing Antibody Assay, Virus/Ab Incubation 18 hour [9]?
Answer: > 50 µg/mL

Question: For 1495_C14 (PGC14) (antibody), which IC50, Neutralizing Antibody Assay, Virus/Ab Incubation 1 hour [5] is on record?
Answer: > 50 µg/mL

Question: And the IC50, Neutralizing Antibody Assay, Virus/Ab Incubation 18 hour [5]?
Answer: > 50 µg/mL

Question: What about the IC50 [2] of the same substance?
Answer: 6 µg/mL

Question: What about the IC50, Neutralizing Antibody Assay, Virus/Ab Incubation 1 hour [6] of the same substance?
Answer: > 50 µg/mL

Question: What about the IC50, Neutralizing Antibody Assay, Virus/Ab Incubation 18 hour [6] of the same substance?
Answer: > 50 µg/mL

Question: And the IC50, Neutralizing Antibody Assay, Virus/Ab Incubation 1 hour [7]?
Answer: 1.17 µg/mL

Question: What about the IC50, Neutralizing Antibody Assay, Virus/Ab Incubation 18 hour [7] of the same substance?
Answer: 0.244 µg/mL

Question: And the IC50, Neutralizing Antibody Assay, Virus/Ab Incubation 1 hour [9]?
Answer: 0.0069 µg/mL

Question: And the IC50, Neutralizing Antibody Assay, Virus/Ab Incubation 18 hour [9]?
Answer: < 0.0025 µg/mL

Question: For 1496_C09 (PG9) (TCN-109) (antibody), which IC50 (µg/mL), pseudovirus neutralization [10] is on record?
Answer: 0.122 µg/mL

Question: What about the IC50 [11] of the same substance?
Answer: 3.6 µg/mL

Question: And the IC50 (µg/mL), pseudovirus neutralization [12]?
Answer: 7.25 µg/mL

Question: And the IC50, Neutralizing Antibody Assay, Virus/Ab Incubation 1 hour [5]?
Answer: 0.334 µg/mL

Question: And the IC50, Neutralizing Antibody Assay, Virus/Ab Incubation 18 hour [5]?
Answer: 0.0942 µg/mL

Question: What about the IC50 [2] of the same substance?
Answer: 0.56 µg/mL

Question: And the IC50, single-round pseudovirus neutralization [13]?
Answer: 8.78 µg/mL

Question: What about the IC50 [14] of the same substance?
Answer: 0.027 µg/mL

Question: And the IC50, Neutralizing Antibody Assay, Virus/Ab Incubation 1 hour [6]?
Answer: 0.0612 µg/mL

Question: And the IC50, Neutralizing Antibody Assay, Virus/Ab Incubation 18 hour [6]?
Answer: 0.0571 µg/mL

Question: What about the IC50 (µg/mL), pseudovirus neutralization [15] of the same substance?
Answer: 0.346 µg/mL

Question: And the IC50 (µg/mL), pseudovirus neutralization [16]?
Answer: 0.071 µg/mL

Question: And the IC50 (µg/mL), pseudovirus neutralization [17]?
Answer: 40.6 µg/mL

Question: And the IC90 (neutralization of pseudovirus) [8]?
Answer: 1.96 µg/mL

Question: What about the IC50 [18] of the same substance?
Answer: 0.141 µg/mL

Question: What does the source list for 4858_P08 (PGT-123) (antibody)?
Answer: IC50, pseudovirus neutralization [19]: 0.014 µg/mL; IC50, pseudovirus neutralization [20]: 0.008 µg/mL; IC50, pseudovirus neutralization [21]: 0.104 µg/mL; Fold IC50 increase relative to wild-type [22]: 0.3 fold; IC50 (µg/mL), pseudovirus neutralization [23]: 0.111 µg/mL; IC50, pseudovirus neutralization (HIV-1 APV13 Env (HIV-1)): 0.222 µg/mL; IC50, pseudovirus neutralization [24]: 0.215 µg/mL; Fold IC50 increase relative to wild-type [25]: 0.3 fold; Fold IC50 increase relative to wild-type [26]: 0.3 fold; Fold IC50 increase relative to wild-type [27]: 64 fold

Question: For 4877_D15 (PGT-122) (antibody), which IC50, pseudovirus neutralization [19] is on record?
Answer: 0.026 µg/mL

Question: And the IC50, pseudovirus neutralization [20]?
Answer: 0.021 µg/mL

Question: What about the IC50, pseudovirus neutralization [21] of the same substance?
Answer: > 10 µg/mL

Question: And the IC50 (µg/mL), pseudovirus neutralization [23]?
Answer: 0.195 µg/mL

Question: And the IC50, pseudovirus neutralization (HIV-1 APV13 Env (HIV-1))?
Answer: 0.992 µg/mL

Question: And the IC50, pseudovirus neutralization [24]?
Answer: 0.867 µg/mL

Question: 5114_A19 (PGT-128) (antibody) was tested. Which Fold IC50 increase relative to wild-type [28] did it give?
Answer: 1.6 fold

Question: What about the Fold IC50 increase relative to wild-type [29] of the same substance?
Answer: 1.8 fold
